Test results from paper PMC6940986, “Structural Insights into the Intracellular Region of the Human Magnesium Transport Mediator CNNM4” (International Journal of Molecular Sciences, 2019).

B1: CNNM4_(BAT-cNMP-Ctail) (complete intracellular region of human CNNM4, residues 356-775) (domain or fragment, UniProt Q6P4Q7 356-775, looked up)
chain: KEELNMIQGALELRTKTVEDIMTQLQDCFMIRSDAILDFNTMSEIMESGYTRIPVFEDEQSNIVDILYVKDLAFVDPDDCTPLKTITRFYNHPVHFVFHDTKLDAMLEEFKKGKSHLAIVQKVNNEGEGDPFYEVLGLVTLEDVIEEIIKSEILDESDMYTDNRSRKRVSEKNKRDFSAFKDADNELKVKISPQLLLAAHRFLATEVSQFSPSLISEKILLRLLKYPDVIQELKFDEHNKYYARHYLYTRNKPADYFILILQGKVEVEAGKENMKFETGAFSYYGTMALTSVPSDRSPAHPTPLSRSASLSYPDRTDVSTAATLAGSSNQFGSSVLGQYISDFSVRALVDLQYIKITRQQYQNGLLASRMENSPQFPIDGCTTHMENLAEKSELPVVDETTTLLNERNSLLHKASHENAI
notes: CNNM4, human, UniProtKB/Swiss-Prot Q6P4Q7, residues 356-775 (Bateman module, linker, cNMP domain and C-terminal tail); Cloned into pHIS-Parallel2; also called hCNNM4_(BAT-cNMP-Ctail); full intracellular region; source: E. coli BL21 (DE3), purified (HisTrap, TEV, second Ni-NTA, Superdex 75); not shown: His6, N-terminal, cleaved

Tests used:
[1] = target: the molecule itself; assay: SEC-MALS; Superdex 200 10/300 GL, 25 C, 20 mM HEPES pH 7.4, 200 mM NaCl, 1 mM TCEP; 100 uL injected at 1 and 10 g/L; monomer to dimer
[2] = target: B1; assay: SEC-SAXS; KW-403 size-exclusion column online, 20 C, 20 mM HEPES pH 7.4, 200 mM NaCl, 1 mM DTT; samples about 5 mg/mL; CNNM4_(BAT-cNMP-Ctail) and its complex with PRL-1 each without and with 5 mM MgATP; oligomeric state from Porod volume, Rg, Dmax; conditions: both partners purified

| Binder | stoichiometry N [1] | also measured |
| --- | --- | --- |
| CNNM4_(cNMP) (human CNNM4 cyclic nucleotide monophosphate binding-like domain, residues 545-730) (domain or fragment, UniProt Q6P4Q7 545-730, looked up, SeMet labeled in the crystals, CNNM4, human, UniProtKB/Swiss-Prot Q6P4Q7, residues 545-730 (cNMP domain only, without the C-terminal tail); Cloned into pHIS-Parallel2; In solution a concentration dependent mixture of monomers and dimers; also called hCNNM4_(cNMP); CNNM4_(545-730); source: E. coli BL21 (DE3), purified (HisTrap, TEV, second Ni-NTA, Superdex 75); SeMet derivative from E. coli B834 (DE3) for the crystals; not …) KISPQLLLAAHRFLATEVSQFSPSLISEKILLRLLKYPDVIQELKFDEHNKYYARHYLYTRNKPADYFILILQGKVEVEAGKENMKFETGAFSYYGTMALTSVPSDRSPAHPTPLSRSASLSYPDRTDVSTAATLAGSSNQFGSSVLGQYISDFSVRALVDLQYIKITRQQYQNGLLASRMENSPQ | 2 |  |
| B1 | 2 |  |
| CNNM4_(BAT-cNMP-Ctail) F631A mutant (domain or fragment, human, UniProt Q6P4Q7 356-775, looked up, CNNM4, human, UniProtKB/Swiss-Prot Q6P4Q7, residues 356-775 with F631A; also called F631A mutant of CNNM4_(BAT-cNMP-Ctail)) KEELNMIQGALELRTKTVEDIMTQLQDCFMIRSDAILDFNTMSEIMESGYTRIPVFEDEQSNIVDILYVKDLAFVDPDDCTPLKTITRFYNHPVHFVFHDTKLDAMLEEFKKGKSHLAIVQKVNNEGEGDPFYEVLGLVTLEDVIEEIIKSEILDESDMYTDNRSRKRVSEKNKRDFSAFKDADNELKVKISPQLLLAAHRFLATEVSQFSPSLISEKILLRLLKYPDVIQELKFDEHNKYYARHYLYTRNKPADYFILILQGKVEVEAGKENMKAETGAFSYYGTMALTSVPSDRSPAHPTPLSRSASLSYPDRTDVSTAATLAGSSNQFGSSVLGQYISDFSVRALVDLQYIKITRQQYQNGLLASRMENSPQFPIDGCTTHMENLAEKSELPVVDETTTLLNERNSLLHKASHENAI |  | binding result [1]: binds |
| PRL-1 (phosphatase of regenerating liver 1) (enzyme, PRL-1, phosphatase of the regenerating liver; The methods give no source or construct for PRL-1) MARMNRPAPVEVTYKNMRFLITHNPTNATLNKFIEELKKYGVTTIVRVCEATYDTTLVEKEGIHVLDWPFDDGAPPSNQIVDDWLSLVKIKFREEPGCCIAVHCVAGLGRAPVLVALALIEGGMKYEDAVQFIRQKRRGAFNSKQLLYLEKYRPKMRLRFKDSNGHRNNCCIQ |  | stoichiometry N [2]: 2 PRL-1 molecules per CNNM4_(BAT-cNMP-Ctail) dimer |
